Measured values published in PMC4010968, “Nap1 stimulates homologous recombination by RAD51 and RAD54 in higher-ordered chromatin containing histone H1” (Scientific Reports, 2014).

T1: Human RAD54 (purified) (human, UniProt Q92698 1-747)
T1 construct: RAD54, human cDNA inserted into pFastBac HTc; purification details are in the Supplementary Methods; also called purified RAD54; source: recombinant human RAD54 baculovirus (pFastBac HTc vector), purified; details in Supplementary Methods
T1 sequence (looked up): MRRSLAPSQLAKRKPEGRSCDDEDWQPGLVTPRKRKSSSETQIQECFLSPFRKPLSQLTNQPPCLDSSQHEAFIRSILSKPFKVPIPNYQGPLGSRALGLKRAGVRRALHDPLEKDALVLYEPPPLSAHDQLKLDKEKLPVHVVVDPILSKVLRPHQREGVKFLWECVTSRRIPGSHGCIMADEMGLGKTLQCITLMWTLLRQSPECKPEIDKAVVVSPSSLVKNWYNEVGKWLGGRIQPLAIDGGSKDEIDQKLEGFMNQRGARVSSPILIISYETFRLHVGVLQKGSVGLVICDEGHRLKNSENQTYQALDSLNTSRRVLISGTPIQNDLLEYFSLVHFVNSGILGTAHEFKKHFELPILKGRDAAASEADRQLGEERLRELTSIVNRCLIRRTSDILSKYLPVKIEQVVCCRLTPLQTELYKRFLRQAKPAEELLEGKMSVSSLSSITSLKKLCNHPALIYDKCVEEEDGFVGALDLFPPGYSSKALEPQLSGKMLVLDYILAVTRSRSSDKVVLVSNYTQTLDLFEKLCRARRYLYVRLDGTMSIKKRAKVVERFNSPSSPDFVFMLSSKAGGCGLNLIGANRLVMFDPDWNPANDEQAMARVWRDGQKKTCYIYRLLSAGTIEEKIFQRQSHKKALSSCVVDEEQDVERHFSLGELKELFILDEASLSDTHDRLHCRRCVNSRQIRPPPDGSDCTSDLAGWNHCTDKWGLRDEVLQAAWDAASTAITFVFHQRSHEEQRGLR


Columns and labels:
Human RAD54 (purified) [1] = target: T1, Human RAD54 (purified); assay: pull-down; Nap1-conjugated beads with purified RAD51 alone or purified RAD54 alone; SDS-PAGE with Coomassie Brilliant Blue staining; details: both partners purified
Human RAD54 (purified) [2] = target: T1, Human RAD54 (purified); assay: native gel or EMSA; Nap1 or mutant incubated with the indicated amounts of RAD54; 5% native PAGE with Coomassie Brilliant Blue staining; RAD54 alone does not enter the gel; details: both partners purified

| Binder | binding result (Human RAD54 (purified) [1]) | binding result (Human RAD54 (purified) [2]) |
| --- | --- | --- |
| Human Nap1 (purified, wild type) (natural protein, UniProt P55209 1-391, looked up, Nap1 (histone chaperone, nucleosome assembly protein 1), human; also called purified Nap1; wild type Nap1) MADIDNKEQSELDQDLDDVEEVEEEETGEETKLKARQLTVQMMQNPQILAALQERLDGLVETPTGYIESLPRVVKRRVNALKNLQVKCAQIEAKFYEEVHDLERKYAVLYQPLFDKRFEIINAIYEPTEEECEWKPDEEDEISEELKEKAKIEDEKKDEEKEDPKGIPEFWLTVFKNVDLLSDMVQEHDEPILKHLKDIKVKFSDAGQPMSFVLEFHFEPNEYFTNEVLTKTYRMRSEPDDSDPFSFDGPEIMGCTGCQIDWKKGKNVTLKTIKKKQKHKGRGTVRTVTKTVSNDSFFNFFAPPEVPESGDLDDDAEAILAADFEIGHFLRERIIPRSVLYFTGEAIEDDDDDYDEEGEEADEEGEEEGDEENDPDYDPKKDQNPAECKQQ | binds |  |
| Nap1(E215,219,222,227K) mutant (natural protein, human, UniProt P55209 1-391, looked up, Nap1, human, with Glu215, Glu219, Glu222 and Glu227 replaced by Lys; A trace amount of a read-through product was present as a contaminant in the purified fraction; also called Nap1(E215K,E219K,E222K,E227K) mutant; Nap1 mutant) MADIDNKEQSELDQDLDDVEEVEEEETGEETKLKARQLTVQMMQNPQILAALQERLDGLVETPTGYIESLPRVVKRRVNALKNLQVKCAQIEAKFYEEVHDLERKYAVLYQPLFDKRFEIINAIYEPTEEECEWKPDEEDEISEELKEKAKIEDEKKDEEKEDPKGIPEFWLTVFKNVDLLSDMVQEHDEPILKHLKDIKVKFSDAGQPMSFVLKFHFKPNKYFTNKVLTKTYRMRSEPDDSDPFSFDGPEIMGCTGCQIDWKKGKNVTLKTIKKKQKHKGRGTVRTVTKTVSNDSFFNFFAPPEVPESGDLDDDAEAILAADFEIGHFLRERIIPRSVLYFTGEAIEDDDDDYDEEGEEADEEGEEEGDEENDPDYDPKKDQNPAECKQQ |  | binds |
